# Reference: IntAct's records for PubMed 19197237
# B1: Peroxisomal biogenesis factor 19 (Homo sapiens), P40855 (parent)
# chain: MAAAEEGCSVGAEADRELEELLESALDDFDKAKPSPAPPSTTTAPDASGPQKRSPGDTAKDALFASQEKFFQELFDSELASQATAEFEKAMKELAEEEPHLVEQFQKLSEAAGRVGSDMTSQQEFTSCLKETLSGLAKNATDLQNSSMSEEELTKAMEGLGMDEGDGEGNILPIMQSIMQNLLSKDVLYPSLKEITEKYPEWLQSHRESLPPEQFEKYQEQHSVMCKICEQFEAETPTDSETTQKARFEMVLDLMQQLQDLGHPPKELAGEMPPGLNFDLDALNLSGPPGASGEQCLIM
# B2: Peroxisomal membrane protein PEX14 (Homo sapiens), O75381 (parent)
# chain: MASSEQAEQPSQPSSTPGSENVLPREPLIATAVKFLQNSRVRQSPLATRRAFLKKKGLTDEEIDMAFQQSGTAADEPSSLGPATQVVPVQPPHLISQPYSPAGSRWRDYGALAIIMAGIAFGFHQLYKKYLLPLILGGREDRKQLERMEAGLSELSGSVAQTVTQLQTTLASVQELLIQQQQKIQELAHELAAAKATTSTNWILESQNINELKSEINSLKGLLLNRRQFPPSPSAPKIPSWQIPVKSPSPSSPAAVNHHSSSDISPVSNESTSSSPGKEGHSPEGSTVTYHLLGPQEEGEGVVDVKGQVRMEVQGEEEKREDKEDEEDEEDDDVSHVDEEDCLGVQREDRRGGDGQINEQVEKLRRPEGASNESERD
# partner: B1 chain
# Variants of: B1
# Settings: with pex14_human PEX14, O75381
row,effect of a mutation on the interaction,Variant
1,disrupting interaction,L74A

# Variants of: B1
# Settings: with pex14_human PEX14, O75381
# Remark: another data set of the same source
row,effect of a mutation on the interaction,Variant
1,disrupting interaction,E68A

# Variants of: B1
# Settings: with pex14_human PEX14, O75381
# Remark: another data set of the same source
row,effect of a mutation on the interaction,Variant
1,disrupting interaction,F71A

# Variants of: B1
# Settings: with pex14_human PEX14, O75381
# Remark: another data set of the same source
row,effect of a mutation on the interaction,Variant
1,disrupting interaction,F70A

# Variants of: B1
# Settings: with pex14_human PEX14, O75381
# Remark: another data set of the same source
row,effect of a mutation on the interaction,Variant
1,disrupting interaction,F75A

# Variants of: B2
# Settings: with pex19_human PEX19, P40855
row,effect of a mutation on the interaction,Variant
1,decreasing interaction,K56E

# Variants of: B2
# Settings: with pex19_human PEX19, P40855
# Remark: another data set of the same source
row,effect of a mutation on the interaction,Variant
1,decreasing interaction,R49E

# Variants of: B2
# Settings: with pex19_human PEX19, P40855
# Remark: another data set of the same source
row,effect of a mutation on the interaction,Variant
1,disrupting interaction,F52W
